Test results from patent publication US20200181257A1 (Chugai, published 2020).

T1: human Fcγ receptor hFcgRIIb (human, UniProt P31994 43-217, limits assumed)
T1 construct: Construct used in the SPR assay is not described; also called FcγRIIb; FcγIIB
T1 sequence: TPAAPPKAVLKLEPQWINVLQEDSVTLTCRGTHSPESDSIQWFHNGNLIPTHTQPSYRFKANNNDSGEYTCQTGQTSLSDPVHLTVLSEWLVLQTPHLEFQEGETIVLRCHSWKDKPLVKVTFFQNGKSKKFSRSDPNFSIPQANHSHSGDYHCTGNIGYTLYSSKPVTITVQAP

T2: human Fcγ receptor hFcgRIIa (R) (human, UniProt P12318 36-217)
T2 construct: also called FcγRIIa (type R); FcγIIA
T2 chain: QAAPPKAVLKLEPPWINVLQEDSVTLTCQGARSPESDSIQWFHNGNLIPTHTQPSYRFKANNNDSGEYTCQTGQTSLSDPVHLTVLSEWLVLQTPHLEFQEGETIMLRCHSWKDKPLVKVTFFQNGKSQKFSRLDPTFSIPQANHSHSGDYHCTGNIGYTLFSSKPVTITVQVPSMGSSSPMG

T3: human Fcγ receptor hFcgRIIa (H) (human, UniProt P12318 36-217)
T3 construct: also called FcγRIIa (type H); FcγIIA
T3 sequence: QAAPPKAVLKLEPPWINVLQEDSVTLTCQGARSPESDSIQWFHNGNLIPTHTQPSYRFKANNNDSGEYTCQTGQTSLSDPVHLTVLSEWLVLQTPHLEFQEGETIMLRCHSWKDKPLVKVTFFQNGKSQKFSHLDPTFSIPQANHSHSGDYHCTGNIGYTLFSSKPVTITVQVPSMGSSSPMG


What was measured:
Assay in all cases: SPR, antibody captured on Protein A
[1] = biological target: T1, human Fcγ receptor hFcgRIIb
Experimental: (§1) Furthermore, binding ability to hFcgRs was measured by the method described in Reference Example 3.
(§2) Interactions between antibodies and hFcgRs (hFcgRIa, hFcgRIIa(R), hFcgRIIa(H), hFcgRIIb, hFcgRIIIa(F), and hFcgRIIIa(V)) were analyzed using Biacore T100 (GE Healthcare). HBS-EP+(GE Healthcare) was used for the running buffer, and the measurement temperature was set at 25° C. Protein A (Invitrogen) was immobilized by the amino coupling method, and an antibody of interest was captured thereon. Then, hFcγR solutions diluted using the running buffer were injected to allow interaction with the captured antibody at a flow rate of 30 μL/min for five minutes for hFcγRIa, and at a flow rate of 5 μL/min for one minute for the other hFcγRs. […] Since the hFcγR binding level depends on the amount of captured antibodies, the FcgR-binding levels were corrected so that the capture level of each antibody would be 200 RU (resonance unit) for hFcgRIa and 1000 RU (resonance unit) for the other hFcgRs. The captured antibodies were washed by allowing 10 mM glycine-HCl (pH 1.5) to react for 30 seconds at a flow rate of 30 μL/min to recycle the chip for reuse.

[2] = biological target: T2, human Fcγ receptor hFcgRIIa (R)
Experimental: as §1, §2

[3] = biological target: T4, human Fcγ receptor hFcgRIIIa (V) (human, UniProt P08637 17-208)
T4 construct: also called FcγRIIIa allotype V158; FcγIIIA
Experimental: as §1, §2

[4] = biological target: T5, human Fcγ receptor hFcgRIa (human, UniProt P12314 16-292, limits assumed)
T5 construct: Construct used in the SPR assay is not described; also called hFcγRIa; FcγI
Experimental: as §1, §2

[5] = biological target: T3, human Fcγ receptor hFcgRIIa (H)
Experimental: as §1, §2

T5 sequence (P12314 16-292 limits assumed): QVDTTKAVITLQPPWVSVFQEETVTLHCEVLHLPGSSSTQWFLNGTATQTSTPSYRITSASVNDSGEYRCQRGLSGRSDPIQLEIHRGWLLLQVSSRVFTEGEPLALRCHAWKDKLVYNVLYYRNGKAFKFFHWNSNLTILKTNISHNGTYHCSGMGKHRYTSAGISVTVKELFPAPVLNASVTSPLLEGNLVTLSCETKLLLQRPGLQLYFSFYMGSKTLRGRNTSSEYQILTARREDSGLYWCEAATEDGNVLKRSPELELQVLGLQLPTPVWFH
T4 sequence (P08637 other isoform, or with tags, fused parts or gaps limits assumed): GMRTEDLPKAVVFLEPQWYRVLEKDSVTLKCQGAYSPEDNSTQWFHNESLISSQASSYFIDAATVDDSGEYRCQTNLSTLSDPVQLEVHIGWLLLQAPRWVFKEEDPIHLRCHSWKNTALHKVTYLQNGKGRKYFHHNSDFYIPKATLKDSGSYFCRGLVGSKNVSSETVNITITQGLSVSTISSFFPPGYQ

Row | Binder | binding relative to G1 (=100) [1] | binding relative to G1 (=100) [2] | binding relative to G1 (=100) [3] | binding relative to G1 (=100) [4] | binding relative to G1 (=100) [5]
1 | TS21 (antibody, anti-IL6R IgG1, G1d with Q295M/K326A/A330Y (EU)) heavy: QVQLQESGPGLVRPSQTLSLTCTVSGYSITSDHAWSWVRQPPGRGLEWIGYISYSGITTYNPSLKSRVTMLRDTSKNQFSLRLSSVTAADTAVYYCARSLARTTAMDYWGQGSLVTVSSASTKGPSVFPLAPSSKSTSGGTAALGCLVKDYFPEPVTVSWNSGALTSGVHTFPAVLQSSGLYSLSSVVTVPSSSLGTQTYICNVNHKPSNTKVDKKVEPKSCDKTHTCPPCPAPELLGGPSVFLFPPKPKDTLMISRTPEVTCVVVDVSHEDPEVKFNWYVDGVEVHNAKTKPREEMYNSTYRVVSVLTVLHQDWLNGKEYKCKVSNAALPYPIEKTISKAKGQPREPQVYTLPPSRDELTKNQVSLTCLVKGFYPSDIAVEWESNGQPENNYKTTPPVLDSDGSFFLYSKLTVDKSRWQQGNVFSCSVMHEALHNHYTQKSLSLSP light: not shown | 121 | 113 | 124 | 107 | 
2 | TS27 (antibody, anti-IL6R IgG1, G1d with Q295L/K326A/A330H (EU)) heavy: QVQLQESGPGLVRPSQTLSLTCTVSGYSITSDHAWSWVRQPPGRGLEWIGYISYSGITTYNPSLKSRVTMLRDTSKNQFSLRLSSVTAADTAVYYCARSLARTTAMDYWGQGSLVTVSSASTKGPSVFPLAPSSKSTSGGTAALGCLVKDYFPEPVTVSWNSGALTSGVHTFPAVLQSSGLYSLSSVVTVPSSSLGTQTYICNVNHKPSNTKVDKKVEPKSCDKTHTCPPCPAPELLGGPSVFLFPPKPKDTLMISRTPEVTCVVVDVSHEDPEVKFNWYVDGVEVHNAKTKPREELYNSTYRVVSVLTVLHQDWLNGKEYKCKVSNAALPHPIEKTISKAKGQPREPQVYTLPPSRDELTKNQVSLTCLVKGFYPSDIAVEWESNGQPENNYKTTPPVLDSDGSFFLYSKLTVDKSRWQQGNVFSCSVMHEALHNHYTQKSLSLSP light: not shown | 242 | 158 |  | 106 | 151
3 | TS38 (antibody, anti-IL6R IgG1, G1d with L234K/L235R/S239K/Q295M/Y296G/S298G/N325G (EU)) heavy: QVQLQESGPGLVRPSQTLSLTCTVSGYSITSDHAWSWVRQPPGRGLEWIGYISYSGITTYNPSLKSRVTMLRDTSKNQFSLRLSSVTAADTAVYYCARSLARTTAMDYWGQGSLVTVSSASTKGPSVFPLAPSSKSTSGGTAALGCLVKDYFPEPVTVSWNSGALTSGVHTFPAVLQSSGLYSLSSVVTVPSSSLGTQTYICNVNHKPSNTKVDKKVEPKSCDKTHTCPPCPAPEKRGGPKVFLFPPKPKDTLMISRTPEVTCVVVDVSHEDPEVKFNWYVDGVEVHNAKTKPREEMGNGTYRVVSVLTVLHQDWLNGKEYKCKVSGKALPAPIEKTISKAKGQPREPQVYTLPPSRDELTKNQVSLTCLVKGFYPSDIAVEWESNGQPENNYKTTPPVLDSDGSFFLYSKLTVDKSRWQQGNVFSCSVMHEALHNHYTQKSLSLSP light: not shown |  | 2.3 | 0.9 | 0.3 | 1.7
4 | TS26 (antibody, anti-IL6R IgG1, G1d with Q295L/K326S/A330Y (EU)) heavy: QVQLQESGPGLVRPSQTLSLTCTVSGYSITSDHAWSWVRQPPGRGLEWIGYISYSGITTYNPSLKSRVTMLRDTSKNQFSLRLSSVTAADTAVYYCARSLARTTAMDYWGQGSLVTVSSASTKGPSVFPLAPSSKSTSGGTAALGCLVKDYFPEPVTVSWNSGALTSGVHTFPAVLQSSGLYSLSSVVTVPSSSLGTQTYICNVNHKPSNTKVDKKVEPKSCDKTHTCPPCPAPELLGGPSVFLFPPKPKDTLMISRTPEVTCVVVDVSHEDPEVKFNWYVDGVEVHNAKTKPREELYNSTYRVVSVLTVLHQDWLNGKEYKCKVSNSALPYPIEKTISKAKGQPREPQVYTLPPSRDELTKNQVSLTCLVKGFYPSDIAVEWESNGQPENNYKTTPPVLDSDGSFFLYSKLTVDKSRWQQGNVFSCSVMHEALHNHYTQKSLSLSP light: not shown | 208 | 145 | 134 | 107 | 
5 | TS28 (antibody, anti-IL6R IgG1, G1d with L234K/L235K/S239K/H268K/D270F/Q295M/Y296G/S298G/N325G (EU)) heavy: QVQLQESGPGLVRPSQTLSLTCTVSGYSITSDHAWSWVRQPPGRGLEWIGYISYSGITTYNPSLKSRVTMLRDTSKNQFSLRLSSVTAADTAVYYCARSLARTTAMDYWGQGSLVTVSSASTKGPSVFPLAPSSKSTSGGTAALGCLVKDYFPEPVTVSWNSGALTSGVHTFPAVLQSSGLYSLSSVVTVPSSSLGTQTYICNVNHKPSNTKVDKKVEPKSCDKTHTCPPCPAPEKKGGPKVFLFPPKPKDTLMISRTPEVTCVVVDVSKEFPEVKFNWYVDGVEVHNAKTKPREEMGNGTYRVVSVLTVLHQDWLNGKEYKCKVSGKALPAPIEKTISKAKGQPREPQVYTLPPSRDELTKNQVSLTCLVKGFYPSDIAVEWESNGQPENNYKTTPPVLDSDGSFFLYSKLTVDKSRWQQGNVFSCSVMHEALHNHYTQKSLSLSP light: not shown |  | 1.9 | 1.7 | 5.8 | 1.7
6 | TS29 (antibody, anti-IL6R IgG1, G1d with L234K/L235K/S239K/H268K/D270F/Q295M/Y296G/S298G/N325H (EU)) heavy: QVQLQESGPGLVRPSQTLSLTCTVSGYSITSDHAWSWVRQPPGRGLEWIGYISYSGITTYNPSLKSRVTMLRDTSKNQFSLRLSSVTAADTAVYYCARSLARTTAMDYWGQGSLVTVSSASTKGPSVFPLAPSSKSTSGGTAALGCLVKDYFPEPVTVSWNSGALTSGVHTFPAVLQSSGLYSLSSVVTVPSSSLGTQTYICNVNHKPSNTKVDKKVEPKSCDKTHTCPPCPAPEKKGGPKVFLFPPKPKDTLMISRTPEVTCVVVDVSKEFPEVKFNWYVDGVEVHNAKTKPREEMGNGTYRVVSVLTVLHQDWLNGKEYKCKVSHKALPAPIEKTISKAKGQPREPQVYTLPPSRDELTKNQVSLTCLVKGFYPSDIAVEWESNGQPENNYKTTPPVLDSDGSFFLYSKLTVDKSRWQQGNVFSCSVMHEALHNHYTQKSLSLSP light: not shown |  | 2.1 | 1.6 | 5.1 | 0.7
7 | TS35 (antibody, anti-IL6R IgG1, G1d with L234K/L235K/Q295M/Y296G/S298G/N325H (EU)) heavy: QVQLQESGPGLVRPSQTLSLTCTVSGYSITSDHAWSWVRQPPGRGLEWIGYISYSGITTYNPSLKSRVTMLRDTSKNQFSLRLSSVTAADTAVYYCARSLARTTAMDYWGQGSLVTVSSASTKGPSVFPLAPSSKSTSGGTAALGCLVKDYFPEPVTVSWNSGALTSGVHTFPAVLQSSGLYSLSSVVTVPSSSLGTQTYICNVNHKPSNTKVDKKVEPKSCDKTHTCPPCPAPEKKGGPSVFLFPPKPKDTLMISRTPEVTCVVVDVSHEDPEVKFNWYVDGVEVHNAKTKPREEMGNGTYRVVSVLTVLHQDWLNGKEYKCKVSHKALPAPIEKTISKAKGQPREPQVYTLPPSRDELTKNQVSLTCLVKGFYPSDIAVEWESNGQPENNYKTTPPVLDSDGSFFLYSKLTVDKSRWQQGNVFSCSVMHEALHNHYTQKSLSLSP light: not shown |  | 1.1 | 1.5 | 0.5 | 1.7
8 | TS23 (antibody, anti-IL6R IgG1, G1d with Q295L/K326A/A330Y (EU)) heavy: QVQLQESGPGLVRPSQTLSLTCTVSGYSITSDHAWSWVRQPPGRGLEWIGYISYSGITTYNPSLKSRVTMLRDTSKNQFSLRLSSVTAADTAVYYCARSLARTTAMDYWGQGSLVTVSSASTKGPSVFPLAPSSKSTSGGTAALGCLVKDYFPEPVTVSWNSGALTSGVHTFPAVLQSSGLYSLSSVVTVPSSSLGTQTYICNVNHKPSNTKVDKKVEPKSCDKTHTCPPCPAPELLGGPSVFLFPPKPKDTLMISRTPEVTCVVVDVSHEDPEVKFNWYVDGVEVHNAKTKPREELYNSTYRVVSVLTVLHQDWLNGKEYKCKVSNAALPYPIEKTISKAKGQPREPQVYTLPPSRDELTKNQVSLTCLVKGFYPSDIAVEWESNGQPENNYKTTPPVLDSDGSFFLYSKLTVDKSRWQQGNVFSCSVMHEALHNHYTQKSLSLSP light: not shown | 226 | 153 | 137 |  | 145
